According to the supplement of paper PMC9112550, “Optimization of the antimicrobial peptide Bac7 by deep mutational scanning” (BMC Biology, 2022):

system: Escherichia coli TOP10; test: shrunken log2 fold change of peptide-encoding DNA abundance (4.5 h post-induction vs induction); higher = less antimicrobial activity (less host growth inhibition); details: time post-induction: 4.5 h; library: site-saturation at positions 5, 18, 19, 20
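Note: peptides expressed intracellularly from a pBAD plasmid library in pooled LB shake-flask culture, induced with 0.3% L-arabinose, DNA abundance read by NGS, three biological replicates, DESeq2 with apeglm shrinkage.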

Sequence | shrunken log2 fold change
RRIRPRPPRLPRPRPRPWHIPRP | -0.0921
RRIRPRPPRLPRPRPRPWHRPRP | -0.156
RRIRPRPPRLPRPRPRPWKTPRP | -0.225
RRIRPRPPRLPRPRPRPWKWPRP | 0.423
RRIRPRPPRLPRPRPRPWLNPRP | -0.541
RRIRPRPPRLPRPRPRPWNFPRP | -0.205
RRIRPRPPRLPRPRPRPWRHPRP | -0.0659
RRIRPRPPRLPRPRPRPWSGPRP | 0.000793
RRIRPRPPRLPRPRPRPWSNPRP | -0.52
RRIRPRPPRLPRPRPRPWTPPRP | 0.0256
RRIRPRPPRLPRPRPRPWWAPRP | 0.00677
RRIRPRPPRLPRPRPRPWWGPRP | -0.0751
RRIRPRPPRLPRPRPRPWWTPRP | -0.311
RRIRPRPPRLPRPRPRPWYIPRP | -0.472
RRIRPRPPRLPRPRPRPWYYPRP | -0.102
RRIRPRPPRLPRPRPRPYAFPRP | -0.264
RRIRPRPPRLPRPRPRPYANPRP | -0.231
RRIRPRPPRLPRPRPRPYCGPRP | -0.148
RRIRPRPPRLPRPRPRPYDAPRP | -0.0642
RRIRPRPPRLPRPRPRPYDIPRP | -0.88
RRIRPRPPRLPRPRPRPYENPRP | -0.66
RRIRPRPPRLPRPRPRPYETPRP | -0.106
RRIRPRPPRLPRPRPRPYFLPRP | -0.614
RRIRPRPPRLPRPRPRPYGKPRP | -0.307
RRIRPRPPRLPRPRPRPYICPRP | -0.149

Sequence | shrunken log2 fold change
RRIRPRPPRLPRPRPRPYIGPRP | -0.184
RRIRPRPPRLPRPRPRPYLPPRP | -0.431
RRIRPRPPRLPRPRPRPYLSPRP | -0.509
RRIRPRPPRLPRPRPRPYNKPRP | -1.16
RRIRPRPPRLPRPRPRPYNYPRP | -0.446
RRIRPRPPRLPRPRPRPYPSPRP | -0.65
RRIRPRPPRLPRPRPRPYSRPRP | -0.368
RRIRPRPPRLPRPRPRPYTNPRP | -0.709
RRIRPRPPRLPRPRPRPYTVPRP | -0.947
RRIRPRPPRLPRPRPRPYVYPRP | -0.636
RRIRPRPPRLPRPRPRPYWLPRP | -0.377
RRIRQRPPRLPRPRPRPAALPRP | 0.247
RRIRQRPPRLPRPRPRPAATPRP | 0.732
RRIRQRPPRLPRPRPRPAAWPRP | 0.245
RRIRQRPPRLPRPRPRPACSPRP | 0.125
RRIRQRPPRLPRPRPRPAEGPRP | 0.045
RRIRQRPPRLPRPRPRPAEVPRP | 0.142
RRIRQRPPRLPRPRPRPAFPPRP | 0.0799
RRIRQRPPRLPRPRPRPAFTPRP | -0.00944
RRIRQRPPRLPRPRPRPAGYPRP | -0.101
RRIRQRPPRLPRPRPRPAIIPRP | -0.0528
RRIRQRPPRLPRPRPRPAIYPRP | -0.0621
RRIRQRPPRLPRPRPRPALGPRP | 0.563
RRIRQRPPRLPRPRPRPAMRPRP | 0.718
RRIRQRPPRLPRPRPRPANGPRP | 0.184

Sequence | shrunken log2 fold change
RRIRQRPPRLPRPRPRPANWPRP | 0.431
RRIRQRPPRLPRPRPRPAQIPRP | 0.028
RRIRQRPPRLPRPRPRPAQLPRP | 0.0104
RRIRQRPPRLPRPRPRPAQPPRP | 0.187
RRIRQRPPRLPRPRPRPARAPRP | 1.22
RRIRQRPPRLPRPRPRPARMPRP | 0.195
RRIRQRPPRLPRPRPRPARNPRP | 0.298
RRIRQRPPRLPRPRPRPASYPRP | -0.121
RRIRQRPPRLPRPRPRPATFPRP | 0.157
RRIRQRPPRLPRPRPRPAVGPRP | 0.0738
RRIRQRPPRLPRPRPRPAWCPRP | 0.0518
RRIRQRPPRLPRPRPRPAWVPRP | 0.0382
RRIRQRPPRLPRPRPRPAYTPRP | 0.0569
RRIRQRPPRLPRPRPRPAYVPRP | -0.0582
RRIRQRPPRLPRPRPRPAYWPRP | 0.128
RRIRQRPPRLPRPRPRPAYYPRP | -0.514
RRIRQRPPRLPRPRPRPCACPRP | 0.0128
RRIRQRPPRLPRPRPRPCALPRP | 0.0342
RRIRQRPPRLPRPRPRPCCCPRP | 0.0589
RRIRQRPPRLPRPRPRPCCWPRP | 0.0955
RRIRQRPPRLPRPRPRPCDAPRP | -0.027
RRIRQRPPRLPRPRPRPCEHPRP | 0.0413
RRIRQRPPRLPRPRPRPCGEPRP | -0.0396
RRIRQRPPRLPRPRPRPCHEPRP | -0.0663
RRIRQRPPRLPRPRPRPCHVPRP | -0.167

Sequence | shrunken log2 fold change
RRIRQRPPRLPRPRPRPCKKPRP | 0.0212
RRIRQRPPRLPRPRPRPCKNPRP | -0.409
RRIRQRPPRLPRPRPRPCLIPRP | -0.0017
RRIRQRPPRLPRPRPRPCPMPRP | -0.203
RRIRQRPPRLPRPRPRPCSLPRP | -1.03
RRIRQRPPRLPRPRPRPCSQPRP | -0.018
RRIRQRPPRLPRPRPRPCSSPRP | -0.0115
RRIRQRPPRLPRPRPRPCTAPRP | 0.139
RRIRQRPPRLPRPRPRPCWEPRP | -0.126
RRIRQRPPRLPRPRPRPCWNPRP | -0.13
RRIRQRPPRLPRPRPRPCWQPRP | -0.0325
RRIRQRPPRLPRPRPRPCWRPRP | -0.0087
RRIRQRPPRLPRPRPRPCYGPRP | -0.0796
RRIRQRPPRLPRPRPRPCYLPRP | -0.195
RRIRQRPPRLPRPRPRPCYMPRP | -0.832
RRIRQRPPRLPRPRPRPCYPPRP | -1.5
RRIRQRPPRLPRPRPRPCYTPRP | -0.149
RRIRQRPPRLPRPRPRPDCFPRP | 0.291
RRIRQRPPRLPRPRPRPDDAPRP | -0.0705
RRIRQRPPRLPRPRPRPDFWPRP | 0.0103
RRIRQRPPRLPRPRPRPDHRPRP | 0.083
RRIRQRPPRLPRPRPRPDIAPRP | 0.111
RRIRQRPPRLPRPRPRPDIDPRP | -0.078
RRIRQRPPRLPRPRPRPDIIPRP | -0.0199
RRIRQRPPRLPRPRPRPDITPRP | -0.00487

Sequence | shrunken log2 fold change
RRIRQRPPRLPRPRPRPDIWPRP | -0.214
RRIRQRPPRLPRPRPRPDKLPRP | -0.522
RRIRQRPPRLPRPRPRPDKYPRP | -0.0227
RRIRQRPPRLPRPRPRPDMMPRP | 0.142
RRIRQRPPRLPRPRPRPDNFPRP | 0.013
RRIRQRPPRLPRPRPRPDNIPRP | -0.00584
RRIRQRPPRLPRPRPRPDNRPRP | -0.00104
RRIRQRPPRLPRPRPRPDPDPRP | -0.00136
RRIRQRPPRLPRPRPRPDQHPRP | 0.00878
RRIRQRPPRLPRPRPRPDRLPRP | -0.0692
RRIRQRPPRLPRPRPRPDSNPRP | -0.382
RRIRQRPPRLPRPRPRPDTRPRP | 0.00157
RRIRQRPPRLPRPRPRPDTTPRP | 0.0217
RRIRQRPPRLPRPRPRPDYCPRP | -0.163
RRIRQRPPRLPRPRPRPDYSPRP | -0.0839
RRIRQRPPRLPRPRPRPDYTPRP | -0.0424
RRIRQRPPRLPRPRPRPEDHPRP | -0.0311
RRIRQRPPRLPRPRPRPEDVPRP | -0.0612
RRIRQRPPRLPRPRPRPEEKPRP | 0.00355
RRIRQRPPRLPRPRPRPEESPRP | 0.0313
RRIRQRPPRLPRPRPRPEETPRP | -0.0125
RRIRQRPPRLPRPRPRPEFDPRP | 0.00351
RRIRQRPPRLPRPRPRPEGQPRP | -0.0666
RRIRQRPPRLPRPRPRPEHWPRP | 0.0788
RRIRQRPPRLPRPRPRPEKGPRP | -0.017

Sequence | shrunken log2 fold change
RRIRQRPPRLPRPRPRPELYPRP | -0.113
RRIRQRPPRLPRPRPRPEMQPRP | 0.0355
RRIRQRPPRLPRPRPRPENSPRP | -0.0723
RRIRQRPPRLPRPRPRPEPGPRP | 0.485
RRIRQRPPRLPRPRPRPEPHPRP | 0.0864
RRIRQRPPRLPRPRPRPEPLPRP | 0.287
RRIRQRPPRLPRPRPRPEQRPRP | 0.0426
RRIRQRPPRLPRPRPRPESLPRP | -0.00178
RRIRQRPPRLPRPRPRPETIPRP | -0.0395
RRIRQRPPRLPRPRPRPEVKPRP | -0.0062
RRIRQRPPRLPRPRPRPEVVPRP | 0.196
RRIRQRPPRLPRPRPRPEWQPRP | 0.00709
RRIRQRPPRLPRPRPRPEWVPRP | 3.27
RRIRQRPPRLPRPRPRPEYTPRP | -0.11
RRIRQRPPRLPRPRPRPFAFPRP | 0.087
RRIRQRPPRLPRPRPRPFCEPRP | -0.0314
RRIRQRPPRLPRPRPRPFCQPRP | 0.53
RRIRQRPPRLPRPRPRPFCVPRP | -0.0258
RRIRQRPPRLPRPRPRPFDIPRP | -0.16
RRIRQRPPRLPRPRPRPFFHPRP | -0.532
RRIRQRPPRLPRPRPRPFFSPRP | -0.313
RRIRQRPPRLPRPRPRPFFVPRP | -0.0254
RRIRQRPPRLPRPRPRPFISPRP | -0.0195
RRIRQRPPRLPRPRPRPFNFPRP | -0.16
RRIRQRPPRLPRPRPRPFNMPRP | 0.00759
